Measured values taken from patent US20200017592A1 (Regeneron, published 2020).

B1: H4H14734P2 (antibody, human IgG4 S228P, kappa, V domains shown)
VH: EVQLVESGGGLVKPGGSLRLSCAASGFIFSNAWMNWVRQAPGKGLAWVGRIKTETDGGTTDYAAPVKGRFTISRDDSKNTLYLQMNSVKTEDTAVYYCTGGYSYGDDSSSWNEGYYYYGMDVWGQGTTVTVSS
VL: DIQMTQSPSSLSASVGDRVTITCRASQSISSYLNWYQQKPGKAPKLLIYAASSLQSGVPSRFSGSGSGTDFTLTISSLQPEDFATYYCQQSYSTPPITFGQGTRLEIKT
notes: Fully human anti-IL-36R antibody; also called H14H14734P2
B2: H4H14731P (antibody, human IgG4 S228P, kappa, V domains shown)
VH: QLQLQESGPGLVKPSETLSLTCTVSGGSISSSNYYWGWIRQPPGKRLEWIGSIYYSGSTYYNPSLKTRVTISVDTSKNQFSLKLTSVTAADTAVYYCAREEAAALTHFDFWGQGTLVTVSS
VL: DIQMTQSPSSLSASVGDRVTITCRASQSISNYLNWYQQKPGKAPKLLIFAASSLQSGVPSRFSGSGSGTDFTLTISSLQPEDFATYYCQHSHSSHPITFGQGTRLEIKR
notes: Fully human anti-IL-36R antibody
B3: H4H14732P2 (antibody, human IgG4 S228P, kappa, V domains shown)
VH: EVQLVESGGGLVQPGRSLRLSCAASGFTFDDYAMHWVRQAPGKGLEWVSGINWAGYNIDYADSVKGRFTISRDNAKNSLYLQMNSLRAEDTALYYCAKDMRGFSYGFPFDYWGQGTLVTVSS
VL: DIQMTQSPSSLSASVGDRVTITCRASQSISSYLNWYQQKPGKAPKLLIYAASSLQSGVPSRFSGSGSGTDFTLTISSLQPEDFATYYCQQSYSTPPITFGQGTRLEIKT
notes: as for B2

The binders below were run against T1, human IL-36R extracellular domain expressed with a C-terminal mouse IgG2a Fc tag (hIL-36R-mFc) (human; mouse, UniProt Q9HB29 20-337) (assay: SPR Biacore 4000, mAb captured on anti-hFc, 25C).
T1 construct: not shown: mouse IgG2a Fc, E98-K330
T1 sequence (looked up): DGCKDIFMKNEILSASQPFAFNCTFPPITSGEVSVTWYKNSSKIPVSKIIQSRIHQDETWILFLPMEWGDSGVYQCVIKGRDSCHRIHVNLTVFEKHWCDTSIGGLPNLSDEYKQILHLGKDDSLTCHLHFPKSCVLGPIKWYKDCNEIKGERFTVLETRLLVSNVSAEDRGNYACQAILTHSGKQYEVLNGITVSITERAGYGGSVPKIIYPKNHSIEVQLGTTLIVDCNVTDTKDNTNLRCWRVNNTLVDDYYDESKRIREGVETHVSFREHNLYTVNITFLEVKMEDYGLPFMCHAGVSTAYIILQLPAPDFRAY
Summary of the method: (§1)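 Analyte 100 nM–3.7 nM (3-fold), 4 min association at 30 μL/minute, 10 min dissociation; HBS-ET pH 7.4 running buffer; antibody captured via anti-hFc. ka, kd from 1:1 model fit; KD and t½ derived from rate constants.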
With B1 the “100 nM hIL-36R-mFc Bound (RU)” value was 77 RU, the Kd was 1.63 nM and the koff was 0.000101 s⁻¹. It also gave a kon of 62200 M⁻¹ s⁻¹ and a t1/2 of 114 min. With B2 the “100 nM hIL-36R-mFc Bound (RU)” value was 10 RU, the Kd was 5.79 nM and the koff was 0.000323 s⁻¹. For the same binder, the kon was 55800 M⁻¹ s⁻¹ and the t1/2 was 36 min. With B3 the “100 nM hIL-36R-mFc Bound (RU)” value was 145 RU, the Kd was 1.4 nM and the koff was 0.000797 s⁻¹. The kon was 570000 M⁻¹ s⁻¹ and the t1/2 was 14 min.

What follows are binders tested against T2, in-line fusion protein of human IL-36R extracellular domain and IL1RAcP extracellular domain expressed with … (human; mouse, UniProt Q9HB29 20-337; Q9NPH3 21-359, limits assumed) (assay: SPR Biacore 4000, mAb captured on anti-hFc, 25C).
T2 construct: not shown: mouse IgG2a Fc
T2 sequence (looked up): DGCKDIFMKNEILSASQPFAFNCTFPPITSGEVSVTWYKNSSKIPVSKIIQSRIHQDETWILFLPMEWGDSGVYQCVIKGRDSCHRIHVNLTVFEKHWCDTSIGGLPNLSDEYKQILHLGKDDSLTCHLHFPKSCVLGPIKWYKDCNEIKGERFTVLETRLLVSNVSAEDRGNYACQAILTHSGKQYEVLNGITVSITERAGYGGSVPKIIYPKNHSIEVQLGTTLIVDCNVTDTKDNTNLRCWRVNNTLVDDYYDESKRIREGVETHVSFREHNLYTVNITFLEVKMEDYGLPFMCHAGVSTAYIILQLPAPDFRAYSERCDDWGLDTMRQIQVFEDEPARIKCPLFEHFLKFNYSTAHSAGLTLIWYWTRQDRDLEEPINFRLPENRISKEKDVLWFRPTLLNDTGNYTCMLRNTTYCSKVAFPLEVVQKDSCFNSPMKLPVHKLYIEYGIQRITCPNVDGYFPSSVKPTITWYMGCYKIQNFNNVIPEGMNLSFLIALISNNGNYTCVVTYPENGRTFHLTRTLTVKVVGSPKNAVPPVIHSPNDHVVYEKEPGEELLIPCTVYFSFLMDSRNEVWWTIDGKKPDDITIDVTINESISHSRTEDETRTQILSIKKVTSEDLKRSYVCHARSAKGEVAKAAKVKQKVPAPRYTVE
Summary of the method: as §1
For B1, the “100 nM hIL-36R-Trap-mFc Bound (RU)” value was 85 RU, the Kd was 2.24 nM and the koff was 0.00011 s⁻¹. It also gave a kon of 48900 M⁻¹ s⁻¹ and a t1/2 of 105 min. For B2, the “100 nM hIL-36R-Trap-mFc Bound (RU)” value was 60 RU, the Kd was 4.45 nM and the koff was 0.000201 s⁻¹. It also gave a kon of 45200 M⁻¹ s⁻¹ and a t1/2 of 57 min. In the case of B3, the “100 nM hIL-36R-Trap-mFc Bound (RU)” value is reported as 161 RU, the Kd is reported as 2.95 nM and the koff is reported as 0.00136 s⁻¹. For the same binder, the kon was 462000 M⁻¹ s⁻¹ and the t1/2 was 8 min.

The binders below were run against T1, human IL-36R extracellular domain … (assay: SPR Biacore 4000, mAb captured on anti-hFc, 37C).
Summary of the method: as §1
With B1 the “100 nM hIL-36R-mFc Bound (RU)” value was 96 RU, the Kd was 2.31 nM and the koff was 0.000122 s⁻¹. The kon was 52700 M⁻¹ s⁻¹ and the t1/2 was 95 min. With B2 the “100 nM hIL-36R-mFc Bound (RU)” value was 12 RU, the Kd was 6.43 nM and the koff was 0.00045 s⁻¹. For the same binder, the kon was 69900 M⁻¹ s⁻¹ and the t1/2 was 26 min. With B3 the “100 nM hIL-36R-mFc Bound (RU)” value was 195 RU, the Kd was 2 nM and the koff was 0.00127 s⁻¹. For the same binder, the kon was 635000 M⁻¹ s⁻¹ and the t1/2 was 9 min.

These binders were tested against T2, in-line fusion protein of human IL-36R … (assay: SPR Biacore 4000, mAb captured on anti-hFc, 37C).
Summary of the method: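 First, an anti-human Fc capture surface was prepared by amine coupling; next, anti-IL-36R antibody was captured. Then receptor analyte at 100 nM down to 3.7 nM was flowed for 4 minutes and dissociation monitored for 10 minutes. Finally, kinetics were fitted 1:1.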
In the case of B1, the “100 nM hIL-36R-Trap-mFc Bound (RU)” value is reported as 99 RU, the Kd is reported as 2.96 nM and the koff is reported as 0.000143 s⁻¹. It also gave a kon of 48400 M⁻¹ s⁻¹ and a t1/2 of 81 min. In the case of B2, the “100 nM hIL-36R-Trap-mFc Bound (RU)” value is reported as 78 RU, the Kd is reported as 9.77 nM and the koff is reported as 0.000514 s⁻¹. It also gave a kon of 52600 M⁻¹ s⁻¹ and a t1/2 of 22 min. B3 was tested, and the “100 nM hIL-36R-Trap-mFc Bound (RU)” value was 212 RU, the Kd was 3.63 nM and the koff was 0.00182 s⁻¹. For the same binder, the kon was 501000 M⁻¹ s⁻¹ and the t1/2 was 6 min.

The binders below were run against T3, human IL-36R extracellular domain expressed with a C-terminal myc-myc-hexahistidine tag (hIL-36R-MMH) (human, UniProt Q9HB29 20-337) (assay: SPR Biacore T200, mAb captured on anti-hFc, 25C, PBS-T pH 6.0 running buffer).
T3 construct: also called Human IL-36R-MMH; REGN2105
Summary of the method: (§2)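 Antibodies captured on an anti-human Fc surface; hIL-36R-MMH injected at 100-11.11 nM (3-fold) in PBS-T pH 7.4 for 4 min at 50 μL/min. Dissociation followed 10 min in PBS-T pH 7.4 or pH 6.0 at 25 °C or 37 °C; kd from 1:1 fit, t1/2 derived from kd.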
In the case of B1, the “100 nM Human IL-36R-MMH Bound (RU)” value is reported as 18 RU, the koff is reported as 0.000787 s⁻¹ and the t1/2 is reported as 15 min. B2 was tested, and the “100 nM Human IL-36R-MMH Bound (RU)” value was 43 RU, the koff was 0.000679 s⁻¹ and the t1/2 was 17 min. With B3 the “100 nM Human IL-36R-MMH Bound (RU)” value was 28 RU, the koff was 0.000918 s⁻¹ and the t1/2 was 13 min.

What follows are binders tested against T3, human IL-36R extracellular domain … (assay: SPR Biacore T200, mAb captured on anti-hFc, 25C, PBS-T pH 7.4 running buffer).
Summary of the method: as §2
For B1, the “100 nM Human IL-36R-MMH Bound (RU)” value was 20 RU, the koff was 0.000738 s⁻¹ and the t1/2 was 16 min. For B2, the “100 nM Human IL-36R-MMH Bound (RU)” value was 65 RU, the koff was 0.000553 s⁻¹ and the t1/2 was 21 min. With B3 the “100 nM Human IL-36R-MMH Bound (RU)” value was 32 RU, the koff was 0.000865 s⁻¹ and the t1/2 was 13 min.

These binders were tested against T3, human IL-36R extracellular domain … (assay: SPR Biacore T200, mAb captured on anti-hFc, 37C, PBS-T pH 6.0 running buffer).
Summary of the method: as §2
For B1, the “100 nM hIL-36R-MMH Bound (RU)” value was 17 RU, the koff was 0.00169 s⁻¹ and the t1/2 was 7 min. In the case of B2, the “100 nM hIL-36R-MMH Bound (RU)” value is reported as 84 RU, the koff is reported as 0.00201 s⁻¹ and the t1/2 is reported as 6 min. B3 was tested, and the “100 nM hIL-36R-MMH Bound (RU)” value was 36 RU, the koff was 0.00123 s⁻¹ and the t1/2 was 9 min.

Each binder was assayed against T3, human IL-36R extracellular domain … (assay: SPR Biacore T200, mAb captured on anti-hFc, 37C, PBS-T pH 7.4 running buffer).
Summary of the method: as §2
For B1, the “100 nM hIL-36R-MMH Bound (RU)” value was 20 RU, the koff was 0.00121 s⁻¹ and the t1/2 was 10 min. In the case of B2, the “100 nM hIL-36R-MMH Bound (RU)” value is reported as 91 RU, the koff is reported as 0.00108 s⁻¹ and the t1/2 is reported as 11 min. For B3, the “100 nM hIL-36R-MMH Bound (RU)” value was 40 RU, the koff was 0.0011 s⁻¹ and the t1/2 was 10 min.
